11 molecules from patent US20170145104A1 (Bristol-Myers Squibb, published 2017) can be followed below.

For experiment [1], the target named is T1, non-glycosylated N-terminal human GITR peptide consisting of SEQ ID NO: 215 (human).
T1 construct: Made by proteolysis of native GITR-mouse Fc and also by organic synthesis; also called N-terminal peptide without O-linked glycosylation
T1 peptide: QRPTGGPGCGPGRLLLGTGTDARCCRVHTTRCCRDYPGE
In words: capture on 28F3 coated beads, LC-MS. The method, then:
The experiment was conducted as follows: Human GITR peptide fragments were generated by incubation of human GITR with Endoproteinase Arg-C, Endoproteinase Lys-C, Trypsin, Endoproteinase Glu-C or Endoproteinase Asp-N at a 2% w/w ratio at 37° C. in PBS for five hours without the presence of denaturing reagents. The peptide mixture was then incubated with anti-GITR Ab beads in PBS at room temperature for two hours. Some samples were subjected to in situ secondary cleavage by incubation with a different enzyme in PBS for an hour. Unbound peptides were removed by washing the anti-GITR Ab beads twice with PBS.

For experiment [2], the target named is T2, human GITR, membrane bound (on activated human T cells and on 3A9-hGITR cells) (human, UniProt Q9Y5U5 26-241).
T2 construct: whole, on cells; the cell is named under assay; also called huGITR; TNFRSF18
T2 sequence (looked up): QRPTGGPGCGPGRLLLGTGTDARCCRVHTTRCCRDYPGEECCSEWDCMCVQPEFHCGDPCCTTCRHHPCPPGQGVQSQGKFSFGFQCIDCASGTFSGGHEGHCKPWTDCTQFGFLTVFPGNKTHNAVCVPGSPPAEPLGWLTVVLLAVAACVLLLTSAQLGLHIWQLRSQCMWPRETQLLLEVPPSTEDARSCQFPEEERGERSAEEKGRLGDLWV
Description: FACS, activated human T cells (anti-CD3/anti-CD28), PE anti-human IgG. The method, then: (§1) Peripheral Blood Mononuclear Cells (PBMCs) isolated from human or cynomolgus monkey were activated with plate-coated anti-CD3 antibody (Clone: UCHT1 for human T cell activation; Clone: SP34 for cynomolgus T cell activation; both from BD Biosciences) and soluble anti-CD28 antibody (Clone:CD28.2 for both human and cynomolgus monkey, BD Biosciences) for 4 days (human)/or 5 days (cynomolgus monkey). The cells were tested for GITR mAb binding in a fluorescence-activated cell sorting (FACS)-based assay using a phycoerythrin (PE)-conjugated anti-human IgG antibody (Jackson ImmunoResearch). The samples were analyzed on a BD FACS Canto Flow Cytometer.

Experiment [3] concerns the target T3, cynomolgus GITR on activated cynomolgus T cells (cynomolgus, UniProt Q9Y5U5 26-241 (human entry)).
T3 construct: also called cyno GITR
T3 chain: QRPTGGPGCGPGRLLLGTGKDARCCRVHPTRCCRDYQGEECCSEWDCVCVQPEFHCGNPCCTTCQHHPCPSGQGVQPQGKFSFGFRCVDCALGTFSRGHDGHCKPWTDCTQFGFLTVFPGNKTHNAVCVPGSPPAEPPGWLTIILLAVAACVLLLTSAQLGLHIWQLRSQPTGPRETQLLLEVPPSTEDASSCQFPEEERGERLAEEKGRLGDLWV
Description: FACS, activated cynomolgus T cells (anti-CD3/anti-CD28), PE anti-human IgG. On the procedure: as §1

A further experiment concerns the target T4, mouse GITR (mouse, UniProt O35714 20-228).
T4 construct: whole, on cells; also called muGITR
T4 sequence (looked up): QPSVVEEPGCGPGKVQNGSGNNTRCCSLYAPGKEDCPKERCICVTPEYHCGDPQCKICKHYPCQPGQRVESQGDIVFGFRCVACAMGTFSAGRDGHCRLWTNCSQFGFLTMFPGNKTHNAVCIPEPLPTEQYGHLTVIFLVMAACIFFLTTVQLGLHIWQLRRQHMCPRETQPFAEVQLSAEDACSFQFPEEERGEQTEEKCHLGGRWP
In words: stated in the Treg suppression assay with wildtype and huGITR knock-in mouse T cells.

The target of experiment [4] is T2, human GITR, membrane bound (on …). Description: FACS blocking assay on GITR-3A9 cells with GITR-L, plotted as % inhibition. The table prints no unit, so ug/mL is taken from the axis 'Conc (ug/mL)'.
Experiment [5] has the same target. In words: FACS blocking assay on GITR-3A9 cells: antibody titrated first, then GITR-L, bound GITR-L read as GMFI (PE). The table prints no unit, so ug/mL is taken from the axis 'Conc (ug/mL)'.
The target is the same in experiment [6]. In words: FACS binding to 3A9-hGITR transfectant, Geo-MFI (PE); EC50 table beside the curves; unit from the axis; the lowest curve (small diamonds) reaches only about 40 Geo-MFI at the top concentration.
The target is the same in experiment [7]. In words: FACS binding to 3A9-hGITR transfectant, Geo-MFI (PE); EC50 table beside the curves; unit from the axis.
The target in experiment [8] is T3, cynomolgus GITR on activated cynomolgus …. Description: FACS on activated cynomolgus T cells, PE anti-human IgG. The EC50 table prints no unit, so nM is taken from the axis 'Concentration (nM)'. The 3C3 curve itself is flat, see non_binding. On the procedure: as §1

B1: 28F3 (antibody, human IgG2, kappa)
heavy: QVQLVESGGGVVQPGRSLRLSCAASGFTFSSYGMHWVRQAPGKGLEWVAVIWYEGSNKYYADSVKGRFTISRDNSKNTLYLQMNSLRAEDTAVYYCARGGSMVRGDYYYGMDVWGQGTTVTVSSASTKGPSVFPLAPCSRSTSESTAALGCLVKDYFPEPVTVSWNSGALTSGVHTFPAVLQSSGLYSLSSVVTVPSSNFGTQTYTCNVDHKPSNTKVDKTVERKCCVECPPCPAPPVAGPSVFLFPPKPKDTLMISRTPEVTCVVVDVSHEDPEVQFNWYVDGVEVHNAKTKPREEQFNSTFRVVSVLTVVHQDWLNGKEYKCKVSNKGLPAPIEKTISKTKGQPREPQVYTLPPSREEMTKNQVSLTCLVKGFYPSDIAVEWESNGQPENNYKTTPPMLDSDGSFFLYSKLTVDKSRWQQGNVFSCSVMHEALHNHYTQKSLSLSPGK
light: not shown
notes: Hybridoma-derived human antibody, IgG2 constant region; also called 13H2; 28F3 (IgG2)
Take B1: the binding result was “binds” in experiment [1] and “no binding” with mouse GITR. Further, the EC50 in [2] came out at 192 pM; in experiment [3], 0.00104 µM; in experiment [4], 0.278 µg/mL; in [5] it was 0.278 µg/mL.

B2: 28F3 VH CDR3 mutant M98S, D106E, M111F (antibody, V domains shown)
VH: QVQLVESGGGVVQPGRSLRLSCAASGFTFSSYGMHWVRQAPGKGLEWVAVIWYEGSNKYYADSVKGRFTISRDNSKNTLYLQMNSLRAEDTAVYYCARGGSSVRGEYYYGFDVWGQGTTVTVSS
VL: AIQLTQSPSSLSASVGDRVTITCRASQGISSALAWYQQKPGKAPKLLIYDASSLESGVPSRFSGSGSGTDFTLTISSLQPEDFATYYCQQFNSYPYTFGQGTKLEIK
notes: also called E4
B2 gave a half-maximal effective concentration (EC50) in [6] of roughly 38600 µM.

B3: 28F3 VH CDR3 mutant M98V, D106E, M111F (antibody, V domains shown)
VH: QVQLVESGGGVVQPGRSLRLSCAASGFTFSSYGMHWVRQAPGKGLEWVAVIWYEGSNKYYADSVKGRFTISRDNSKNTLYLQMNSLRAEDTAVYYCARGGSVVRGEYYYGFDVWGQGTTVTVSS
VL: AIQLTQSPSSLSASVGDRVTITCRASQGISSALAWYQQKPGKAPKLLIYDASSLESGVPSRFSGSGSGTDFTLTISSLQPEDFATYYCQQFNSYPYTFGQGTKLEIK
notes: also called A4
Molecule B3 registered an EC50 in experiment [7] of 0.000772 µM.

B4: 28F3 VH CDR3 mutant M98V, D106E (antibody, V domains shown)
VH: QVQLVESGGGVVQPGRSLRLSCAASGFTFSSYGMHWVRQAPGKGLEWVAVIWYEGSNKYYADSVKGRFTISRDNSKNTLYLQMNSLRAEDTAVYYCARGGSVVRGEYYYGMDVWGQGTTVTVSS
VL: AIQLTQSPSSLSASVGDRVTITCRASQGISSALAWYQQKPGKAPKLLIYDASSLESGVPSRFSGSGSGTDFTLTISSLQPEDFATYYCQQFNSYPYTFGQGTKLEIK
notes: also called H4
B4 gave an EC50 in experiment [7] of 0.00058 µM.

B5: 28F3 VH CDR3 mutant M98Y, D106E (antibody, V domains shown)
VH: QVQLVESGGGVVQPGRSLRLSCAASGFTFSSYGMHWVRQAPGKGLEWVAVIWYEGSNKYYADSVKGRFTISRDNSKNTLYLQMNSLRAEDTAVYYCARGGSYVRGEYYYGMDVWGQGTTVTVSS
VL: AIQLTQSPSSLSASVGDRVTITCRASQGISSALAWYQQKPGKAPKLLIYDASSLESGVPSRFSGSGSGTDFTLTISSLQPEDFATYYCQQFNSYPYTFGQGTKLEIK
notes: also called G5
Regarding B5, in experiment [7], the concentration for a half-maximal effect (EC50) is 0.000798 µM.

B6: 28F3 VH CDR3 mutant M98V (antibody, V domains shown)
VH: QVQLVESGGGVVQPGRSLRLSCAASGFTFSSYGMHWVRQAPGKGLEWVAVIWYEGSNKYYADSVKGRFTISRDNSKNTLYLQMNSLRAEDTAVYYCARGGSVVRGDYYYGMDVWGQGTTVTVSS
VL: AIQLTQSPSSLSASVGDRVTITCRASQGISSALAWYQQKPGKAPKLLIYDASSLESGVPSRFSGSGSGTDFTLTISSLQPEDFATYYCQQFNSYPYTFGQGTKLEIK
notes: also called H5
Regarding B6, the concentration giving a half-maximal response (EC50) in [7] worked out at 0.00034 µM.

B7: 28F3 VH CDR3 mutant M98Y, D106E, M111F (antibody, V domains shown)
VH: QVQLVESGGGVVQPGRSLRLSCAASGFTFSSYGMHWVRQAPGKGLEWVAVIWYEGSNKYYADSVKGRFTISRDNSKNTLYLQMNSLRAEDTAVYYCARGGSYVRGEYYYGFDVWGQGTTVTVSS
VL: AIQLTQSPSSLSASVGDRVTITCRASQGISSALAWYQQKPGKAPKLLIYDASSLESGVPSRFSGSGSGTDFTLTISSLQPEDFATYYCQQFNSYPYTFGQGTKLEIK
notes: also called G4
In [7], B7 had a concentration for a half-maximal effect (EC50) of 0.045 µM.

B8: 28F3 VH CDR3 mutant M98Y (antibody, V domains shown)
VH: QVQLVESGGGVVQPGRSLRLSCAASGFTFSSYGMHWVRQAPGKGLEWVAVIWYEGSNKYYADSVKGRFTISRDNSKNTLYLQMNSLRAEDTAVYYCARGGSYVRGDYYYGMDVWGQGTTVTVSS
VL: AIQLTQSPSSLSASVGDRVTITCRASQGISSALAWYQQKPGKAPKLLIYDASSLESGVPSRFSGSGSGTDFTLTISSLQPEDFATYYCQQFNSYPYTFGQGTKLEIK
notes: also called G6
In experiment [7], B8 displayed a 50% effective concentration (EC50) of 0.00168 µM.

B9: 3C3 (antibody, human IgG1, kappa, V domains shown)
VH: QVQLQQWGAGLLKPSETLSLTCAVYGGSFSGYYWTWIRQPPGKGLEWIGKINHSGNTNYNPSLKSRVTISVDTSKNQFSLKLSSVTAADTAVYYCARLGAFDAFDIWGQGTMVTVSS
VL: DIQMTQSPSSLSASVGDRVTITCRASQGISSWLAWYQQKPEKAPKSLIYAASSLQSGVPSRFSGSGSGTDFTLTISSLQPEDFATYYCQQYNSYPYTFGQGTKLEIKR
notes: Hybridoma-derived human antibody; also called GITR.3; 3C3-1
For the molecule B9, the EC50 worked out at 49.2 pM in experiment [2], 0.0693 µg/mL in experiment [4], 0.142 µM in experiment [8] and 0.0693 µg/mL in experiment [5].

B10: 19D3 (antibody, human IgG2, kappa, V domains shown)
VH: QVQLVESGGGVVQPGRSLRLSCAASGFTFSSYGFHWVRQAPGKGLEWVAVIWYAGSNKFYADSVKGRFTISRDNSKNTLYLQMNSLRAEDTAVYYCARGGQLDYYYYYVMDVWGQGTTVTVSS
VL: DIQMTQSPSSLSASVGDRVTITCRASQGISSWLAWYQQKPEKAPKSLIYAASSLQSGVPSRFSGSGSGTDFTLTISSLQPEDFATYYCQQYNSYPYTFGQGTKLEIKR
notes: Hybridoma-derived human antibody; also called 19D3-IgG2
As for B10, the concentration for a half-maximal effect (EC50) in experiment [2] was found to be 363 pM; in experiment [4] it was 0.755 µg/mL; in experiment [5] it was 0.755 µg/mL.

B11: 18E10 (antibody, human IgG2, kappa, V domains shown)
VH: QVQLVESGGGVVQPGRSLRLSCAASGFTFSSYGMHWVRQAPGKGLEWVAVIWYAGSNKYYADSVKGRFTISRDNSKNTLYLQMNSLRAEDTAVYYCARGGRIAVAFYYSMDVWGQGTTVTVSS
VL: DIQMTQSPSSLSASVGDRVTITCRASQGISSWLAWYQQKPEKAPKSLIYAASSLQSGVPSRFSGSGSGTDFTLTISSLQPEDFATYYCQQYNSYPYTFGQGTKLEIKR
notes: Hybridoma-derived human antibody; also called 18E10-IgG2
Consider B11, for which the results for the EC50 in experiment [2] and in experiment [3] were 146 pM and 0.000913 µM, respectively.
